In CN113956356A (FUZHOU MAIXIN BIOTECHNOLOGY DEV CO LTD, dated 2022):

Target: T1, 人PRL蛋白 (native prolactin in pituitary tumour tissue sections) (human, UniProt P01236 29-227)
T1 construct: Endogenous protein detected by immunohistochemistry in paraffin sections of pituitary tumours; also called 催乳素
T1 sequence (looked up): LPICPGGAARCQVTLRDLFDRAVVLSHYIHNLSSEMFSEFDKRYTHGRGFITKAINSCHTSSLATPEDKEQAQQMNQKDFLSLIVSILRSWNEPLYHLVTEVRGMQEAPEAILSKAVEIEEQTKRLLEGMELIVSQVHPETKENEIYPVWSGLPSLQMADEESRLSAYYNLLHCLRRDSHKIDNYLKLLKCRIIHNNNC
Assay: immunohistochemistry on 9 pituitary tumour sections

binding result: binds
B1: 抗PRL蛋白单克隆抗体(2C10D5H11) (antibody, V domains shown)
VH: QIQLVQSGPELKKPGETVKISCKASGYSFTNSAMSWVHQAPGKGLKWMGFINTKTGEPTYVEEFRGRFVFSLETSASTAYLQINNLKNEDTATYFCAKETDNSDDYWGQGTTLTVSS
VL: QIVLTQSPAIMSASPGEMVTLTCSASSSVSSSYLYWYQQKPGSSPKLWIYSTSNLASGVPARFSGSGSGTSYSLTISSMEAEDAASYFCHQWSSYPPTFGGGTKLEIK
notes: also called anti-PRL monoclonal antibody; antibody of hybridoma CGMCC NO.22311
